± gives the standard error. Variants at the floor of the assay were thinned out.
B1: glmS ribozyme (parent)
chain: AUAAAAGCGCCAGAACUACAGAAAUGUAGUUGACGAGGAGGAGGUUUAUCGAAUUUUCGGCGGAUGCCUCCAAA

Legend:
Conditions in all cases: with glucosamine-6-phosphate
[1] = variants of: B1; experiment: self-cleavage kobs at 640 uM GlcN6P; higher = faster cleavage; RNA array
Method in brief: (§1)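 The measurements used barcoded ribozyme variants on sequenced MiSeq chips, transcribed in situ by E. coli RNA polymerase and tracked at 37 °C with a hybridised Cy3 probe. Glucosamine-6-phosphate, 40 μM to 10 mM in HEPES/KCl/Mg(OAc)2 buffer, was flowed in while tiles were imaged over ~14 h. Baseline-normalised signals, also normalised to non-cleaving reference variants, gave per-tile medians that were fit to one- or two-exponential decays for kobs. kcat and KM resulted from weighted Michaelis–Menten fits across concentrations.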

[2] = variants of: B1; experiment: self-cleavage kobs at 2500 uM GlcN6P; higher = faster cleavage; RNA array
Method in brief: as §1

[3] = variants of: B1; experiment: self-cleavage kobs at 10000 uM GlcN6P; higher = faster cleavage; RNA array
Method in brief: as §1

Variant	self-cleavage kobs at 640 uM GlcN6P [1] [s⁻¹]	self-cleavage kobs at 2500 uM GlcN6P [2] [s⁻¹]	self-cleavage kobs at 10000 uM GlcN6P [3] [s⁻¹]
AUAAAAGCGCCAGAACUACAGAAAUGUAGUUGACGAGGAAGAGGUUUAUCAAAUAUUCGGCGGAUGCCUCCAAA [G40A G51A U55A]	< 1e-05	–	–
AUAAAAGCGCUAAAACUACAGAAAUGUAGUUGACGAGGAGGAGUUUUAUCGAAUUUUCGGCGGAUGCCUCCAAA [C11U G13A G44U]	< 1e-05	< 1e-05	–
AUAAAAGCGCCAGGACUACAGAAAUGUAGUUGGCGAAGAGGAGGUUUAUGGAAUUUUCGGCGGAUGCCUGCAAA [A14G A33G G37A C50G C70G]	6.3e-05 ± 2.1e-05	4.9e-05 ± 1.5e-05	–
AUAAAAGCGCCAGAACUACAGAAAUGUAGUUGACGAGGGGGAGGUUUAUCGACUUUUCGGCGGAUGUCUCCAAA [A39G A53C C67U]	0.00111 ± 0.00036	0.000701 ± 0.00027	–
AUAAAAGCGCCAGGACUACAGAAAUGUAGUUGACGAGGAGGAGGUUUAUCGAACUUUCGGGCGAUGCCUCCAAA [A14G U54C C61G G62C]	< 1e-05	–	–
AUAAAAGUGUUAGAACUACAGAAAUGUAGUUGACGAGGAGGAGGUUUAUCCAAUUUUCGGCGGAUGCCUCCAAA [C8U C10U C11U G51C]	< 1e-05	–	–
AUAAAAGCGCCAGAACUACAGAAAUGUAGUGGACGAGGAGGAGGUUUAUCGAAUAUUCGGCGGAUGCCGCCAAA [U31G U55A U69G]	7.53e-05 ± 1.6e-05	7.74e-05 ± 2.2e-05	–
AUAAAAGCGCCUGAACUACAGAAAUGUAGUAGAUGACGAGGAGGUUUAUCGAAUUUUCGGCGGAUGCCUUCAAA [A12U U31A C34U G37C C70U]	< 1e-05	–	–
AUAAAAGCGCCGGAACUACAGAAAUGUAGUUGACGAUGAGGAGGUUUGUCGAAUUUUCGGCGGAUGCCUCCAAA [A12G G37U A48G]	< 1e-05	< 1e-05	–
AUAAAAGCGCCAGGACUACAGAAAUGUAGUUGACUAGGAGGAGGUUUAUCGAAUUUUCGGCGGAUGCCUCCAAA [A14G G35U]	< 1e-05	< 1e-05	–
AUAAAAGCGCCAGAACUACAGAAAUGUAGUUGACUAGGAGGGGGUUUAUCGAAUAUUCGGCGGAUGCCUCCAAA [G35U A42G U55A]	< 1e-05	–	–
AUAAAAGCGCCCGAACUACAGAAAUGUAGUUGACGAGGAGGAGGUUUCUCGAAUUUUCGCCCGAUGCAUCCAAA [A12C A48C G60C G62C C68A]	< 1e-05	–	–
AUAAAUGCGCCAGAACUACAGAAAUGUAGUUGACCAGGAGGAGGUUUAUCGAAUUUUCGGCGGCUGCCUCCAAA [A6U G35C A64C]	< 1e-05	< 1e-05	–
AUAAAAGCGCUAGAACUACAGAAAUGUAGUUGACGAGGAGGAGUUUUAUCGAAUUUUCGGCGGAUGCCUGCAAA [C11U G44U C70G]	< 1e-05	–	–
AUAAAGGCGCCAGAACUACAGAAAUGUAGUGGACAAGGAGGAGGUUUAUCGAAUUUUCGGCGGACGCCUCCAAA [A6G U31G G35A U65C]	< 1e-05	< 1e-05	–
AUAAAAGCGCUAGAACUACAGAAAUGUAGUUCACGGGGAGGAGGUUUAUCGAAUUUUCGGCGGAUGCCUCCAAA [C11U G32C A36G]	< 1e-05	< 1e-05	< 1e-05
AUAAAAGCGCCAGAACUACAGAAAUGUAGUUAACGAGGAGGAGUUUUAUCGACUUUUCGGCGGAUGCCUCCAAA [G32A G44U A53C]	< 1e-05	< 1e-05	–
AUAAAAGCGCCCGAACUACAGAAAUGUAGUUGACGAGGAGGAGGUCUAUCGAAUUUUCGGCGGAUGGCUCCAAA [A12C U46C C67G]	6.73e-05 ± 1.7e-05	0.000179 ± 5.3e-05	–
AUAAAAGCGCCAGAACUACAGAAAUGUAGUUGACGUGGAUGAGGUUUAUCGAAUUUUCGUCGGAUGCCUCCAAA [A36U G40U G60U]	< 1e-05	< 1e-05	–
AUAAAAGCACCAGAACUACAGAAAUGUAGUUGACGACGAGGAGGUUUAUCGAAGUUUCGUCGGAUGCUUCCAAA [G9A G37C U54G G60U C68U]	< 1e-05	< 1e-05	–
AUAAAAGCGCCAGAACUACAGAAAUGUAGUUGACGAGGAGGAGGUUUAUCGCCUCUUCGGCGGAUGGCUCCAAA [A52C A53C U55C C67G]	< 1e-05	< 1e-05	–
AUAAAAGCGCCACAACUACAGAAAUGUAGUUGACUAGGAGGAGGUUUAUCGUAUUUUCGGCGGAUGCCUCCAAA [G13C G35U A52U]	< 1e-05	–	–

From the supplement of paper PMC7125110
